One substance from PMC5484490 can be followed below.

Values joined by “and” are separate entries in the source; they are usually repeats but may differ in a detail not shown here. Equal entries are not always repeated.

Experiment [1] deals with wild type full length human Hsp90β with non-cleavable His6-tag (human). The experiment can be described thus: AUC; sedimentation at 42,000 rpm, 20°C, 16 hours, 7.2 uM Hsp90 in 25 Na-phosphate pH 7.2, 150 mM NaCl, 150 mM KCl, 5 mM DTT, protease inhibitor; absorbance optics; SedFit.
The target is the same in experiment [2]. Nature of the experiment: SEC-MALS; SEC-MALLS on Superdex 200, 0.35 ml/min, 25 mM Na-phosphate pH 7.2, 150 mM NaCl, 5 mM DTT; 10 ul of ~29 g/l loaded; legend: 2.2 uM monomer concentration. In general terms: In gel filtration, larger molecules generally elute earlier.

As a reminder, the stoichiometry N is a count of units in the complex or per binding partner. With “wild type full length human Hsp90β with non-cleavable His6-tag (natural protein; other documents disagree on this pair)”, the stoichiometry N in experiment [1] was 2 and 4; in experiment [2], 2.
